# Biological target: tropomyosin-receptor kinase B-full-length (TrkB-FL), endogenous rat, Q63604
# Sequence (Q63604 32-821): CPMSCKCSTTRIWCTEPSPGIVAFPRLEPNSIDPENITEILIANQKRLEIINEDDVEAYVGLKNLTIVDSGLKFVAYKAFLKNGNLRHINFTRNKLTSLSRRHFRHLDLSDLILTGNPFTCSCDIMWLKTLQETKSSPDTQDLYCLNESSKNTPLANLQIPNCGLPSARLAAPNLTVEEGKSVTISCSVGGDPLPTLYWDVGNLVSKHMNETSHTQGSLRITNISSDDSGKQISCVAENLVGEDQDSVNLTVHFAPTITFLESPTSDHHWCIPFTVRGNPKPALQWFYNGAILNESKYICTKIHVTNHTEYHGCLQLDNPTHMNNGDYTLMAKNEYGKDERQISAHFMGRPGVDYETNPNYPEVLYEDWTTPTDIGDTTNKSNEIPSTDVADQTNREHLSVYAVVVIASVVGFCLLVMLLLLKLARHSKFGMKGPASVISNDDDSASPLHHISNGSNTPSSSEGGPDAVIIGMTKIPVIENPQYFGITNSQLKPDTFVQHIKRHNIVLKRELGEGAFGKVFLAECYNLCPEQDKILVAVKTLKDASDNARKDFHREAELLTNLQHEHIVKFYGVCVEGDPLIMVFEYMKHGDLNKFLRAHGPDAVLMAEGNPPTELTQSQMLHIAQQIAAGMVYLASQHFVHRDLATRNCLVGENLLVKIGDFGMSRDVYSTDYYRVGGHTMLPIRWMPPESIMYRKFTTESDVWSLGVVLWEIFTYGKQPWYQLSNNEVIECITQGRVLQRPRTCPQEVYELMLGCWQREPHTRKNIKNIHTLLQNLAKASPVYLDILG
protein,measurement,value
purified rat m-calpain (protein) MAGIAMKLAKDREAAEGLGSHERAIKYLNQDYETLRNECLEAGALFQDPSFPALPSSLGFKELGPYSSKTRGIEWKRPTEICADPQFIIGGATRTDICQGALGDCWLLAAIASLTLNEEILARVVPLDQSFQENYAGIFHFQFWQYGEWVEVVVDDRLPTKDGELLFVHSAEGSEFWSALLEKAYAKINGCYEALSGGATTEGFEDFTGGIAEWYELRKPPPNLFKIIQKALEKGSLLGCSIDITSAADSEAVTYQKLVKGHAYSVTGAEEVESSGSLQKLIRIRNPWGQVEWTGKWNDNCPSWNTVDPEVRANLTERQEDGEFWMSFSDFLRHYSRLEICNLTPDTLTCDSYKKWKLTKMDGNWRRGSTAGGCRNYPNTFWMNPQYLIKLEEEDEDDEDGERGCTFLVGLIQKHRRRQRKMGEDMHTIGFGIYEVPEELTGQTNIHLSKNFFLTTRARERSDTFINLREVLNRFKLPPGEYVLVPSTFEPHKNGDFCIRVFSEKKADYQTVDDEIEANIEEIEANEEDIGDGFRRLFAQLAGEDAEISAFELQTILRRVLAKREDIKSDGFSIETCKIMVDMLDEDGSGKLGLKEFYILWTKIQKYQKIYREIDVDRSGTMNSYEMRKALEEAGFKLPCQLHQVIVARFADDELIIDFDNFVRCLVRLEILFKIFKQLDPENTGTIQLDLISWLSFSVL,"TrkB-FL protein levels and TrkB-ICD formation in DIV8 neuronal cultures lysate (western blot, enzyme cleavage)",decrease of TrkB-FL protein levels with concomitant TrkB-ICD formation when both exogenous m-calpain (1 or 2 EU) and CaCl2 (2 mM) were added
same,"TrkB-FL protein levels and TrkB-ICD formation in adult rat brain cortex homogenate (western blot, enzyme cleavage)","decrease of TrkB-FL protein levels with concomitant TrkB-ICD formation when both exogenous m-calpain (1 or 2 enzymatic units, EU) and CaCl2 (2 mM) were added"

# Reference: patent US20230321189
